Data: US20030138450A1

Biological target: AMA1/E, refolded recombinant Plasmodium falciparum (3D7) AMA-1 ectodomain (amino acids 83-531) with N- and C-terminal histidine tags (Plasmodium falciparum 3D7) (UniProt P22621)
Assay: ELISA on plate-coated refolding mixtures of r-AMA1/E (GSH/GSSG 1/0.1 mM and 1/0.25 mM), against r-AMA1/E diluted in phosphate buffer with EDTA alone

Substance: rat monoclonal antibody 4G2dc1
- fold ELISA reactivity over the phosphate buffer control: 5 fold
